Data as given in article PMC6048597 (Biochemistry, 2018).

Legend:
Assay in all cases: ITC
hAIRE PHD C310L = target: T1, hAIRE PHD C310L (human, UniProt O43918 294-343, C310L)
T1 chain (looked up): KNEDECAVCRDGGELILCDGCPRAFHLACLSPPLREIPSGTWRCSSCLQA

hKDM5B PHD V346A = target: T2, hKDM5B PHD V346A (human, UniProt Q9UGL1 305-366, V346A)
T2 sequence (looked up): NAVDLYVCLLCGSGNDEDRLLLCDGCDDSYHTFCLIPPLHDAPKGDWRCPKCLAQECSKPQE

[1] = target: T3, hBAZ2A PHD finger (residues 1673–1728), wild type (human, UniProt Q9UIF9 1673-1728)
T3 sequence (looked up): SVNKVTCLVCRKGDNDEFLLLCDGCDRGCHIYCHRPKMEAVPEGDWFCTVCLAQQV

Binder: ARTKQTARKSTW [Histone H3 residues 1–11 (H3-1-11W)]
- fold increase in affinity against the wild type AIRE PHD (hAIRE PHD C310L): ~15 fold
- binding result (hKDM5B PHD V346A): binds
- binding result [1]: binds
